In experiment [1] the target is double-phosphorylated JNK1 (phospho-JNK1) (human).
The target is the same in experiment [2]. The source holds these as a separate data set.

Experimental findings from paper PMC4802042 are described below.

B1: MKP5 catalytic domain (MKP5-CD, residues 320-467) (domain or fragment)
chain: AELTPILPFLFLGNEQDAQDLDTMQRLNIGYVINVTTHLPLYHYEKGLFNYKRLPATDSNKQNLRQYFEEAFEFIEEAHQCGKGLLIHCQAGVSRSATIVIAYLMKHTRMTMTDAYKFVKGKRPIISPNLNFMGQLLEFEEDLNNGVT
As to B1, the Km of MKP5-CD for pJNK1 substrate, relative to that of MKP7-CD in experiment [1] was determined as 20 fold.

B2: MKP7-CD (F285A) (domain or fragment)
chain: NIGPTRILPNLYLGCQRDVLNKELMQQNGIGYVLNASNTCPKPDFIPESHFLRVPVNDSFCEKILPWLDKSVDFIEKAKASNGCVLVHCLAGISRSATIAIAYIMKRMDMSLDEAYRFVKEKRPTISPNANFLGQLLDYEKKIKNQ
For the molecule B2, the phosphatase activity for JNK1 dephosphorylation, relative to wild-type MKP7-CD (Fig. 4a) in experiment [2] turned out to be 10 fold.
